Results reported in paper PMC2323369.

How the values were obtained:
Experiment in all cases: not stated; Table 1, GST-RBD, GDP-RhoA, GTP-Cdc42, GTP-Rac1; the caption names competition ELISA and SPR but not which gave these limits
[1] = biological target: GST-RhoA (wild type) (UniProt P61586)
[2] = biological target: GST-Rac1 (UniProt P63000)
[3] = biological target: GST-Cdc42 (UniProt P60953)

Measured: Kd

GST-Cdc42, sequence (P60953 whole entry): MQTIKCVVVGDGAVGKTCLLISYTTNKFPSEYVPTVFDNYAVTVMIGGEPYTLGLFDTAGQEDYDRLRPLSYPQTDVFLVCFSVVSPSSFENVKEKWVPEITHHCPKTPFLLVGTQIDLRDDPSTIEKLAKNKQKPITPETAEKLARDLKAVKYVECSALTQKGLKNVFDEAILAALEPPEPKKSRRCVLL
GST-RhoA (wild type), sequence (P61586 whole entry): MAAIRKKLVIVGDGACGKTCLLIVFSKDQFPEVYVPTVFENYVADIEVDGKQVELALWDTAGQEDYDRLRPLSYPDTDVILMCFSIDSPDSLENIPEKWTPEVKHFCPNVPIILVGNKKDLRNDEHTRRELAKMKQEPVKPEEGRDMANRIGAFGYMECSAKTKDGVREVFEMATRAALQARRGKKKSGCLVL

GST-RBD (Rho binding domain of Rhotekin fused to GST) (domain or fragment)
> 50 µM: all assays above
